# Starred links: 1 amine or outer side, 2 acyl side, 3 side chain; linkers in the order of their positions; H or OH if unused. Positions of bridges follow the written chain, without caps; N, C: chain ends. Non-standard residues stand in square brackets, D forms with d. No end group written: not given here. Phe(3R-OH) = O=C([C@@H](N[*:1])[C@H](O[*:3])c1ccccc1)[*:2]; tBuAla = CC(C)(C)C[C@H](N)C(=O)O; Cha = N[C@@H](CC1CCCCC1)C(=O)O; dCha = N[C@H](CC1CCCCC1)C(=O)O; hLeu = CC(C)CC[C@H](N)C(=O)O; 4Amb = NCc1ccc(C(=O)O)cc1; Nle = CCCC[C@H](N)C(=O)O; Aib = CC(C)(N)C(=O)O
# T1: human Y2 receptor (human, UniProt P49146 1-381)
# T1 construct: whole, on cells; used as membrane fraction of hY2R/CHO cells; also called human NPY2R; hY2R
# T1 sequence (looked up): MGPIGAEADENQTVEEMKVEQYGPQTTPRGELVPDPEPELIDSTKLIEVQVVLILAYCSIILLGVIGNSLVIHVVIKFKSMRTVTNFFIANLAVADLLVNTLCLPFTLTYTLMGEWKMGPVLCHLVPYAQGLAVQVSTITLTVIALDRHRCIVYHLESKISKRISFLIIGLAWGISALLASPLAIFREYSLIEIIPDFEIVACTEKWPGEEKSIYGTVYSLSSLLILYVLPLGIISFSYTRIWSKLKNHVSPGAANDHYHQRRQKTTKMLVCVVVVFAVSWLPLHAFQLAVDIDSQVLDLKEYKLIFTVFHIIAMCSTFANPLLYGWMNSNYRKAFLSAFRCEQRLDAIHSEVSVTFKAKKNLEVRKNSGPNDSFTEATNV
# Columns and labels:
# human Y2 receptor [1] = target: T1, human Y2 receptor; assay: RBA: [125I]-PYY displacement, hY2R/CHO membranes
# Summary of the method: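 Bound radioligand was collected by filtration on PEI-treated GF/C filters, washed with Tris/MgCl₂/NaCl/CHAPS buffer pH 7.4, and counted by scintillation; IC₅₀ values were calculated.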
# human Y2 receptor [2] = target: T1, human Y2 receptor; assay: cell-based or functional assay
Binder,IC50 Ratio (vs PYY(3-36)) (human Y2 receptor [1]) [ratio],"GBA EC50 Ratio (vs PYY(3-36)), [35S]GTPγS (human Y2 receptor [2]) [ratio]"
"Ac-[Cha]RAYINLITRQRY-NH2 (SMILES CC[C@H](C)[C@H](NC(=O)[C@H](Cc1ccc(O)cc1)NC(=O)[C@H](C)NC(=O)[C@H](CCCNC(=N)N)NC(=O)[C@H](CC1CCCCC1)NC(C)=O)C(=O)N[C@@H](CC(N)=O)C(=O)N[C@@H](CC(C)C)C(=O)N[C@H](C(=O)N[C@H](C(=O)N[C@@H](CCCNC(=N)N)C(=O)N[C@@H](CCC(N)=O)C(=O)N[C@@H](CCCNC(=N)N)C(=O)N[C@@H](Cc1ccc(O)cc1)C(N)=O)[C@@H](C)O)[C@@H](C)CC, also called compound No. 36) [Ac-[Cha24, Ala26, Ile28,31]-PYY(24-36)]",17,13
"[4Amb]RHEINLKTRQRY-NH2 (lactam 4-8; N-terminus assumed; SMILES CC[C@H](C)[C@@H]1NC(=O)[C@@H](NC(=O)[C@H](Cc2c[nH]cn2)NC(=O)[C@H](CCCNC(=N)N)NC(=O)c2ccc(CN)cc2)CCC(=O)NCCCC[C@@H](C(=O)N[C@H](C(=O)N[C@@H](CCCNC(=N)N)C(=O)N[C@@H](CCC(N)=O)C(=O)N[C@@H](CCCNC(=N)N)C(=O)N[C@@H](Cc2ccc(O)cc2)C(N)=O)[C@@H](C)O)NC(=O)[C@H](CC(C)C)NC(=O)[C@H](CC(N)=O)NC1=O, also called compound No. 25) [cyclo(27-31)-4-Aminomethylbenzoyl-[Glu27, Ile28, Lys31]-PYY(25-36)]",30,16
"Ac-[dCha]RAYINLITRQRY-NH2 (SMILES CC[C@H](C)[C@H](NC(=O)[C@H](Cc1ccc(O)cc1)NC(=O)[C@H](C)NC(=O)[C@H](CCCNC(=N)N)NC(=O)[C@@H](CC1CCCCC1)NC(C)=O)C(=O)N[C@@H](CC(N)=O)C(=O)N[C@@H](CC(C)C)C(=O)N[C@H](C(=O)N[C@H](C(=O)N[C@@H](CCCNC(=N)N)C(=O)N[C@@H](CCC(N)=O)C(=O)N[C@@H](CCCNC(=N)N)C(=O)N[C@@H](Cc1ccc(O)cc1)C(N)=O)[C@@H](C)O)[C@@H](C)CC, also called compound No. 37) [Ac-[D-Cha24, Ala26, Ile28,31]-PYY(24-36)]",7.6,4.6
"Ac-S[dP]RH[Cha][Cha]NL[Aib]TRQR[hLeu]-NH2 (SMILES CC(=O)N[C@@H](CO)C(=O)N1CCC[C@@H]1C(=O)N[C@@H](CCCNC(=N)N)C(=O)N[C@@H](Cc1c[nH]cn1)C(=O)N[C@@H](CC1CCCCC1)C(=O)N[C@@H](CC1CCCCC1)C(=O)N[C@@H](CC(N)=O)C(=O)N[C@@H](CC(C)C)C(=O)NC(C)(C)C(=O)N[C@H](C(=O)N[C@@H](CCCNC(=N)N)C(=O)N[C@@H](CCC(N)=O)C(=O)N[C@@H](CCCNC(=N)N)C(=O)N[C@@H](CCC(C)C)C(N)=O)[C@@H](C)O, also called compound No. 199) [Ac-[D-Pro24, Cha27,28, Aib31, homoLeu36]-PYY(23-36)]",20,8.5
"[4Amb]RHYKNLIERQRY-NH2 (lactam 5-9; N-terminus assumed; SMILES CC[C@H](C)[C@@H]1NC(=O)[C@H](CC(C)C)NC(=O)[C@H](CC(N)=O)NC(=O)[C@@H](NC(=O)[C@H](Cc2ccc(O)cc2)NC(=O)[C@H](Cc2c[nH]cn2)NC(=O)[C@H](CCCNC(=N)N)NC(=O)c2ccc(CN)cc2)CCCCNC(=O)CC[C@@H](C(=O)N[C@@H](CCCNC(=N)N)C(=O)N[C@@H](CCC(N)=O)C(=O)N[C@@H](CCCNC(=N)N)C(=O)N[C@@H](Cc2ccc(O)cc2)C(N)=O)NC1=O, also called compound No. 26) [cyclo(28-32)-4-Aminomethylbenzoyl-[Lys28, Ile31, Glu32]-PYY(25-36)]",18,11
"[4Amb]RPYINLITRQRY-NH2 (N-terminus assumed; SMILES CC[C@H](C)[C@H](NC(=O)[C@H](Cc1ccc(O)cc1)NC(=O)[C@@H]1CCCN1C(=O)[C@H](CCCNC(=N)N)NC(=O)c1ccc(CN)cc1)C(=O)N[C@@H](CC(N)=O)C(=O)N[C@@H](CC(C)C)C(=O)N[C@H](C(=O)N[C@H](C(=O)N[C@@H](CCCNC(=N)N)C(=O)N[C@@H](CCC(N)=O)C(=O)N[C@@H](CCCNC(=N)N)C(=O)N[C@@H](Cc1ccc(O)cc1)C(N)=O)[C@@H](C)O)[C@@H](C)CC, also called compound No. 19) [4-Aminomethylbenzoyl-[Pro26, Ile28,31]-PYY(25-36)]",45,25
"Ac-S[dP]RH[Cha][Cha]NL[Aib]TRQR[Phe(3R-OH)]-NH2 (SMILES CC(=O)N[C@@H](CO)C(=O)N1CCC[C@@H]1C(=O)N[C@@H](CCCNC(=N)N)C(=O)N[C@@H](Cc1c[nH]cn1)C(=O)N[C@@H](CC1CCCCC1)C(=O)N[C@@H](CC1CCCCC1)C(=O)N[C@@H](CC(N)=O)C(=O)N[C@@H](CC(C)C)C(=O)NC(C)(C)C(=O)N[C@H](C(=O)N[C@@H](CCCNC(=N)N)C(=O)N[C@@H](CCC(N)=O)C(=O)N[C@@H](CCCNC(=N)N)C(=O)N[C@H](C(N)=O)[C@H](O)c1ccccc1)[C@@H](C)O, also called compound No. 200) [Ac-[D-Pro24, Cha27,28, Aib31, threo-PhSer36]-PYY(23-36)]",16,10
"Ac-FRAYINLITRQRY-NH2 (also called compound No. 34) [Ac-[Phe24, Ala26, Ile28,31]-PYY(24-36)]",25,14
"[dL]RAYINLITRQRY-NH2 (N-terminus assumed; SMILES CC[C@H](C)[C@H](NC(=O)[C@H](Cc1ccc(O)cc1)NC(=O)[C@H](C)NC(=O)[C@H](CCCNC(=N)N)NC(=O)[C@H](N)CC(C)C)C(=O)N[C@@H](CC(N)=O)C(=O)N[C@@H](CC(C)C)C(=O)N[C@H](C(=O)N[C@H](C(=O)N[C@@H](CCCNC(=N)N)C(=O)N[C@@H](CCC(N)=O)C(=O)N[C@@H](CCCNC(=N)N)C(=O)N[C@@H](Cc1ccc(O)cc1)C(N)=O)[C@@H](C)O)[C@@H](C)CC, also called compound No. 24) [[D-Leu24, Ala26, Ile28,31]-PYY(24-36)]",14,9.4
"Ac-PRAYINLITRQRY-NH2 (also called compound No. 38) [Ac-[Pro24, Ala26, Ile28,31]-PYY(24-36)]",52,26
"[dR]LRAYINLITRQRY-NH2 (N-terminus assumed; SMILES CC[C@H](C)[C@H](NC(=O)[C@H](Cc1ccc(O)cc1)NC(=O)[C@H](C)NC(=O)[C@H](CCCNC(=N)N)NC(=O)[C@H](CC(C)C)NC(=O)[C@H](N)CCCNC(=N)N)C(=O)N[C@@H](CC(N)=O)C(=O)N[C@@H](CC(C)C)C(=O)N[C@H](C(=O)N[C@H](C(=O)N[C@@H](CCCNC(=N)N)C(=O)N[C@@H](CCC(N)=O)C(=O)N[C@@H](CCCNC(=N)N)C(=O)N[C@@H](Cc1ccc(O)cc1)C(N)=O)[C@@H](C)O)[C@@H](C)CC, also called compound No. 27) [[D-Arg23, Ala26, Ile28,31]-PYY(23-36)]",4.5,3.6
"Ac-[dF]RAYINLITRQRY-NH2 (SMILES CC[C@H](C)[C@H](NC(=O)[C@H](Cc1ccc(O)cc1)NC(=O)[C@H](C)NC(=O)[C@H](CCCNC(=N)N)NC(=O)[C@@H](Cc1ccccc1)NC(C)=O)C(=O)N[C@@H](CC(N)=O)C(=O)N[C@@H](CC(C)C)C(=O)N[C@H](C(=O)N[C@H](C(=O)N[C@@H](CCCNC(=N)N)C(=O)N[C@@H](CCC(N)=O)C(=O)N[C@@H](CCCNC(=N)N)C(=O)N[C@@H](Cc1ccc(O)cc1)C(N)=O)[C@@H](C)O)[C@@H](C)CC, also called compound No. 35) [Ac-[D-Phe24, Ala26, Ile28,31]-PYY(24-36)]",14,8.7
"Ac-S[dP]RH[Cha][Cha]NL[Aib]TRQR[tBuAla]-NH2 (SMILES CC(=O)N[C@@H](CO)C(=O)N1CCC[C@@H]1C(=O)N[C@@H](CCCNC(=N)N)C(=O)N[C@@H](Cc1c[nH]cn1)C(=O)N[C@@H](CC1CCCCC1)C(=O)N[C@@H](CC1CCCCC1)C(=O)N[C@@H](CC(N)=O)C(=O)N[C@@H](CC(C)C)C(=O)NC(C)(C)C(=O)N[C@H](C(=O)N[C@@H](CCCNC(=N)N)C(=O)N[C@@H](CCC(N)=O)C(=O)N[C@@H](CCCNC(=N)N)C(=O)N[C@@H](CC(C)(C)C)C(N)=O)[C@@H](C)O, also called compound No. 198) [Ac-[D-Pro24, Cha27,28, Aib31, Leu(Me)36]-PYY(23-36)]",12,7.1
"[4Amb]RAY[Nle]NLITRQRY-NH2 (N-terminus assumed; SMILES CCCC[C@H](NC(=O)[C@H](Cc1ccc(O)cc1)NC(=O)[C@H](C)NC(=O)[C@H](CCCNC(=N)N)NC(=O)c1ccc(CN)cc1)C(=O)N[C@@H](CC(N)=O)C(=O)N[C@@H](CC(C)C)C(=O)N[C@H](C(=O)N[C@H](C(=O)N[C@@H](CCCNC(=N)N)C(=O)N[C@@H](CCC(N)=O)C(=O)N[C@@H](CCCNC(=N)N)C(=O)N[C@@H](Cc1ccc(O)cc1)C(N)=O)[C@@H](C)O)[C@@H](C)CC, also called compound No. 21) [4-Aminomethylbenzoyl-[Ala26, Nle28, Ile31]-PYY(25-36)]",4.1,3.6
"{4‑(((imino(octylamino)methyl)amino)methyl)benzoyl}-RAYINLITRQRY-NH2 (also called compound No. 28) [4-({[imino(octylamino)methyl]amino}methyl)benzoyl-[Ala26, Ile28,31]-PYY(25-36)]",14,12

# — patent US20120172293A1 (Takeda / Millennium, published 2012)
